Assay results reported in patent US20140294898A1 (published 2014).
Positions of bridges follow the written chain, without caps; N, C: chain ends. Non-standard residues stand in square brackets, D forms with d. NMeNle = CCCC[C@H](NC)C(=O)O; NMeA = CN[C@@H](C)C(=O)O; dNMeA = CN[C@H](C)C(=O)O; Sar = CNCC(=O)O

Biological target: T1, hPDL1(19-239)-TVMV-His (human, UniProt Q9NZQ7 19-239)
T1 construct: The text says amino acids 18-239, the construct name says 19-239; Expressed in HEK293T cells; Used at 10 nM final in the HTRF assay; also called PD-L1-His; PD-L1-TVMV-His
Test: HTRF competition, PD-1-Ig binding to PD-L1-His
Protocol: All binding studies were performed in an HTRF assay buffer consisting of dPBS supplemented with 0.1% (w/v) bovine serum albumin and 0.05% (v/v) Tween-20. […] PD-L1 fusion proteins from either human, cynomologous macaques, or mouse were used. HTRF detection was achieved using europium crypate-labeled anti-Ig monoclonal antibody (1 nM final) and allophycocyanin (APC) labeled anti-His monoclonal antibody (20 nM final). Antibodies were diluted in HTRF detection buffer and 5 μl was dispensed on top of binding reaction. The reaction was allowed to equilibrate for 30 minutes and signal (665 nm/620 nm ratio) was obtained using an EnVision fluorometer. […]
HTRF Experiments were performed essentially as outlined supra. Variant macrocyclic peptides were created as outlined herein.

T1 sequence (Q9NZQ7 other isoform, or with tags, fused parts or gaps limits assumed): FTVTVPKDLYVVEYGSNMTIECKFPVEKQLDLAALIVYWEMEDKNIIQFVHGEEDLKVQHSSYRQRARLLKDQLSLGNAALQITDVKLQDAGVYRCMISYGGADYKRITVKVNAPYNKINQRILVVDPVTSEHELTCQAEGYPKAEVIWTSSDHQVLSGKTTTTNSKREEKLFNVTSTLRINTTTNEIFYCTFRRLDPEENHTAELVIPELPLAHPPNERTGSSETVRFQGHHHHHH

B1: Compound No. 11 (peptide)
peptide: {CH2CO}-F[NMeA]NPHA[Sar]WSW[NMeNle][NMeNle]RCG-NH2
modifications: thioether N-14
SMILES: CCCC[C@H]1C(=O)N(C)[C@@H](CCCC)C(=O)N[C@@H](CCCNC(=N)N)C(=O)N[C@H](C(=O)NCC(N)=O)CSCC(=O)N[C@@H](Cc2ccccc2)C(=O)N(C)[C@@H](C)C(=O)N[C@@H](CC(N)=O)C(=O)N2CCC[C@H]2C(=O)N[C@@H](Cc2c[nH]cn2)C(=O)N[C@@H](C)C(=O)N(C)CC(=O)N[C@@H](Cc2c[nH]c3ccccc23)C(=O)N[C@@H](CO)C(=O)N[C@@H](Cc2c[nH]c3ccccc23)C(=O)N1C
In the case of B1, the IC50 is reported as 31 nM.

B2: Compound No. 22 (peptide)
peptide: {CH2CO}-F[NMeA]NPHL[Sar]WSW[NMeNle][NMeNle]ACG-NH2
modifications: thioether N-14
SMILES: CCCC[C@H]1C(=O)N(C)[C@@H](CCCC)C(=O)N[C@@H](C)C(=O)N[C@H](C(=O)NCC(N)=O)CSCC(=O)N[C@@H](Cc2ccccc2)C(=O)N(C)[C@@H](C)C(=O)N[C@@H](CC(N)=O)C(=O)N2CCC[C@H]2C(=O)N[C@@H](Cc2c[nH]cn2)C(=O)N[C@@H](CC(C)C)C(=O)N(C)CC(=O)N[C@@H](Cc2c[nH]c3ccccc23)C(=O)N[C@@H](CO)C(=O)N[C@@H](Cc2c[nH]c3ccccc23)C(=O)N1C
In the case of B2, the IC50 is reported as 3 nM.

B3: Compound No. 16 (peptide)
peptide: {CH2CO}-F[NMeA]NPHL[Sar]WAW[NMeNle][NMeNle]RCG-NH2
modifications: thioether N-14
SMILES: CCCC[C@H]1C(=O)N(C)[C@@H](CCCC)C(=O)N[C@@H](CCCNC(=N)N)C(=O)N[C@H](C(=O)NCC(N)=O)CSCC(=O)N[C@@H](Cc2ccccc2)C(=O)N(C)[C@@H](C)C(=O)N[C@@H](CC(N)=O)C(=O)N2CCC[C@H]2C(=O)N[C@@H](Cc2c[nH]cn2)C(=O)N[C@@H](CC(C)C)C(=O)N(C)CC(=O)N[C@@H](Cc2c[nH]c3ccccc23)C(=O)N[C@@H](C)C(=O)N[C@@H](Cc2c[nH]c3ccccc23)C(=O)N1C
With B3 the IC50 was 5 nM.

B4: Compound No. 17 (peptide)
peptide: {CH2CO}-F[NMeA]NPHL[Sar]WSA[NMeNle][NMeNle]RCG-NH2
modifications: thioether N-14
SMILES: CCCC[C@H]1C(=O)N(C)[C@@H](CCCC)C(=O)N[C@@H](CCCNC(=N)N)C(=O)N[C@H](C(=O)NCC(N)=O)CSCC(=O)N[C@@H](Cc2ccccc2)C(=O)N(C)[C@@H](C)C(=O)N[C@@H](CC(N)=O)C(=O)N2CCC[C@H]2C(=O)N[C@@H](Cc2c[nH]cn2)C(=O)N[C@@H](CC(C)C)C(=O)N(C)CC(=O)N[C@@H](Cc2c[nH]c3ccccc23)C(=O)N[C@@H](CO)C(=O)N[C@@H](C)C(=O)N1C
B4 was tested, and the IC50 was 7540 nM.

B5: Compound No. 14 (peptide)
peptide: {CH2CO}-F[NMeA]NPHL[dNMeA]WSW[NMeNle][NMeNle]RCG-NH2
modifications: thioether N-14
SMILES: CCCC[C@H]1C(=O)N(C)[C@@H](CCCC)C(=O)N[C@@H](CCCNC(=N)N)C(=O)N[C@H](C(=O)NCC(N)=O)CSCC(=O)N[C@@H](Cc2ccccc2)C(=O)N(C)[C@@H](C)C(=O)N[C@@H](CC(N)=O)C(=O)N2CCC[C@H]2C(=O)N[C@@H](Cc2c[nH]cn2)C(=O)N[C@@H](CC(C)C)C(=O)N(C)[C@H](C)C(=O)N[C@@H](Cc2c[nH]c3ccccc23)C(=O)N[C@@H](CO)C(=O)N[C@@H](Cc2c[nH]c3ccccc23)C(=O)N1C
In the case of B5, the IC50 is reported as 59 nM.

B6: Compound No. 13 (peptide)
peptide: {CH2CO}-F[NMeA]NPHL[NMeA]WSW[NMeNle][NMeNle]RCG-NH2
modifications: thioether N-14
SMILES: CCCC[C@H]1C(=O)N(C)[C@@H](CCCC)C(=O)N[C@@H](CCCNC(=N)N)C(=O)N[C@H](C(=O)NCC(N)=O)CSCC(=O)N[C@@H](Cc2ccccc2)C(=O)N(C)[C@@H](C)C(=O)N[C@@H](CC(N)=O)C(=O)N2CCC[C@H]2C(=O)N[C@@H](Cc2c[nH]cn2)C(=O)N[C@@H](CC(C)C)C(=O)N(C)[C@@H](C)C(=O)N[C@@H](Cc2c[nH]c3ccccc23)C(=O)N[C@@H](CO)C(=O)N[C@@H](Cc2c[nH]c3ccccc23)C(=O)N1C
B6 gave an IC50 of 16 nM.
